# IntAct's records for PubMed 28017832
# B1: Vacuolar protein sorting-associated protein 33B (Homo sapiens), Q9H267 (parent)
# chain: MAFPHRPDAPELPDFSMLKRLARDQLIYLLEQLPGKKDLFIEADLMSPLDRIANVSILKQHEVDKLYKVENKPALSSNEQLCFLVRPRIKNMRYIASLVNADKLAGRTRKYKVIFSPQKFYACEMVLEEEGIYGDVSCDEWAFSLLPLDVDLLSMELPEFFRDYFLEGDQRWINTVAQALHLLSTLYGPFPNCYGIGRCAKMAYELWRNLEEEEDGETKGRRPEIGHIFLLDRDVDFVTALCSQVVYEGLVDDTFRIKCGSVDFGPEVTSSDKSLKVLLNAEDKVFNEIRNEHFSNVFGFLSQKARNLQAQYDRRRGMDIKQMKNFVSQELKGLKQEHRLLSLHIGACESIMKKKTKQDFQELIKTEHALLEGFNIRESTSYIEEHIDRQVSPIESLRLMCLLSITENGLIPKDYRSLKTQYLQSYGPEHLLTFSNLRRAGLLTEQAPGDTLTAVESKVSKLVTDKAAGKITDAFSSLAKRSNFRAISKKLNLIPRVDGEYDLKVPRDMAYVFGGAYVPLSCRIIEQVLERRSWQGLDEVVRLLNCSDFAFTDMTKEDKASSESLRLILVVFLGGCTFSEISALRFLGREKGYRFIFLTTAVTNSARLMEAMSEVKA
# partner: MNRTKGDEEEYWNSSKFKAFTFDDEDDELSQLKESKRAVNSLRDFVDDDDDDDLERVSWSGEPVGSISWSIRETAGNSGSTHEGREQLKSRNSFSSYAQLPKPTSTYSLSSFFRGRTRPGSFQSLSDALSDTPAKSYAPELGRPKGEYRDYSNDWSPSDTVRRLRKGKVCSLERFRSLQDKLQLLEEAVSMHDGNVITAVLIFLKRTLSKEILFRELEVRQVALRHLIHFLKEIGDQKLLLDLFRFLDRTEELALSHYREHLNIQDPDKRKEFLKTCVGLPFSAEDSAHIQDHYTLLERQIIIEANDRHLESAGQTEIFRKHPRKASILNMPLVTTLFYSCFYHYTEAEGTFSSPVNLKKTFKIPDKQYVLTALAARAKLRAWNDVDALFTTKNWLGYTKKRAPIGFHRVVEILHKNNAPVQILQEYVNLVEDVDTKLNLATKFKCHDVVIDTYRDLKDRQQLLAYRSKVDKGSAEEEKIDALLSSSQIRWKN
# Variants of: B1
# Details: with spe39_human VIPAS39, Q9H9C1
row,Variant,effect of a mutation on the interaction
1,G131E,decreasing interaction strength
